Measurements from article PMC11770034, “Characterization of the oxygen-tolerant formate dehydrogenase from Clostridium carboxidivorans” (Frontiers in Microbiology, 2025).

Test system: T1, NC(=O)C1=CN([C@@H]2O[C@H](COP(=O)(O)OP(=O)(O)OC[C@H]3O[C@@H](n4cnc5c(N)ncnc54)[C@H](O)[C@@H]3O)[C@@H](O)[C@H]2O)C=CC1
T1 construct: Mo form
Experiment: purified protein
Type: biochemical, Clostridium carboxidivorans
Details: 100 mM sodium bicarbonate, 50 mM Bis-Tris pH 6.8, 30 °C, oxic, Mo-loaded enzyme, part of preparation may be inactive

“ccFDH (Mo-ccFDH) (Clostridium carboxidivorans P7; U139C)” was tested, and the Km was 60 ± 7 µM, the Vmax was 5.83 µmol/min and the kcat was 0.02 ± 0.0008 s⁻¹. The kcat/Km was 310 ± 84 M⁻¹ s⁻¹.
